Reference: the emibetuzumab library of Makowski et al. (2022)

B1: VH:VL chains; a variant is named by its letters at X, in order (parent)
chain 1: QVQLVQSGAEVKKPGASVKVSCKASGYTFTDYXMHWVRQAPGQGLEWMGXVNPNXXXTTYNQKFEGRVTMTTDTSTSTAYMELRSLRSDDTAVYYCARXNXLDXWGQGTTVTVSS
chain 2: DIQMTQSPSSLSASVGDRVTITCSVSSSVSSIYLHWYQQKPGKAPKLLIYSTSNLASGVPSRFSGSGSGTDFTLTISSLQPEDFATYYCQVYSGYPLTFGGGTKVEIK

Variants of: B1
Test: yeast display scFab, FACS + sequencing
Procedure, shortened: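 Heavy-chain CDR mutant scFab yeast surface library, FACS-sorted after labelling with biotinylated ovalbumin (260 μg/mL in PBSB, 3 h, room temperature) or soluble membrane proteins (130 μg/mL, 20 min on ice), plus anti-Myc. Gates collected the top 25% and bottom 10% of binders, and samples from two replicates were deep sequenced. Non-specific binding call: a sequence was positive if found in ≥3 of 4 positive samples (membrane protein and ovalbumin pooled) and no negatives, and negative by the converse rule.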

Variant	non-specific binding call
FKTGDAWS	binds
SKTKSDAV	no binding
DKTGNDVV	no binding
DKTGNDVA	no binding
VRAGADGV	no binding
FKRRSSGD	binds
YMAEGSGA	binds
YRAAGAGS	binds
YKTGDSWV	no binding
YKTRGSLD	binds
FKTKNYVV	binds
VKRRSSLA	binds
SKTRGAGV	binds
FKTKSDAV	no binding
YKTRGAGD chain 1 Q43R	no binding
YKTKGSSY	binds
DKTGDAAV	no binding
FKTEGFVS	binds
SKTKSSAS	no binding
YKTRSAVA	binds
YKTGGALY	no binding
SKTKSDVA	no binding
SKTKSDVV	no binding
SKTKSDVD	no binding

Variant	non-specific binding call
SKRRSVGA	binds
YRAAGDVA	no binding
VKTKGVVD	binds
ARAAGDVF	no binding
YKRRSASA	binds
FKRRSFGS	binds
FKTKNYAD	binds
FKTRDFAY	binds
VKTGGSWA	no binding
VKTGGSWV	no binding
YKTRGFGA	binds
VRAETDVY	no binding
SKTKSSGA	no binding
VKTGGDGD	no binding
FKTKDSVV	binds
SKTRAFVA	binds
YKTGDDGV	no binding
VKTGGAGA	no binding
VRAGADVA	no binding
VRAGADVD	no binding
YKTGNDVA	no binding
FKRRSVGA	binds
FKTGGAAV	binds
AKTRDDVA	no binding

Variant	non-specific binding call
YKTESYWY	binds
YRAEGALD	binds
YKTGGASS	binds
FKTESAAV	binds
VRAEGSVA	binds
ARAAGDWV	no binding
YRAEGSSS	binds
YKTRDDAV	no binding
YRAAGSWS	binds
FRAEGSVA	binds
YKTGGDGV	no binding
FKRRSASV	binds
VKTGGDVY	no binding
VKTGGDVA	no binding
VKTGGDVF	no binding
YKTRGAVS	binds
VKTGGSLD	no binding
VKRRSVGA	binds
YRAESSGV	binds
SKTKSDWA	no binding
YKTGDSVD	no binding
YRAETDGV	no binding
YRAESAAA	binds
YKRRSSVF	binds

Variant	non-specific binding call
YKTRSSAD	binds
YKTKSDGV	no binding
ARAASAGA	binds
YKTKSDWV	no binding
VRAEASVV	binds
YKRRNSGD	binds
VKTGGAWY	no binding
YKTRGSAD	binds
YKTRGSAA	binds
DKTKGDWV	no binding
SKTKSSSA	no binding
AKTKSDWV	no binding
SKTRGAWD	binds
YKTGGAGV	binds
AKTRDFVA	binds
FKTAGSAV chain 1 R67H	binds
DKTGDSAD	no binding
FRAEGSLD	binds
VRAGAAGS	no binding
VRAGAAGV	binds
VRAGADSV	no binding
VKTGGAVV	no binding
YKTRSAWS chain 1 M48I	binds
VRAEGSSV	no binding

Variant	non-specific binding call
AKTGNDVA	no binding
YKTGSSWD	binds
ARAETDVY	no binding
YRAEGAWS	binds
FKTKSAGD	no binding
AKTGDSSD	no binding
YRAGAASD	binds
DKTKSDWV	no binding
YRAETDVA	no binding
YRAGAAVA	binds
DRAETDVY	no binding
DKTGDDVF	no binding
SKTKSDGS	no binding
SKTKSDGA	no binding
SKTKSDGV	no binding
AKTKSDGV	no binding
YRAAGSGA	binds
DKTGDDGS	no binding
VRAGADAV	no binding
AKTKSDVA	no binding
YRAEGYVV	binds
YKTGGSGA	binds
